Measurements taken from the supplement of paper PMC10567573.
± gives the standard deviation.

Assay: protein stability index of a GFP-peptide fusion (GPS, HEK-293T) (PSI 1-6); higher = more stable
Details: c terminus: a fixed tail appended
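Also: 24-mer peptide tiles fused after GFP, lentivirally expressed, FACS-sorted into six equal bins by GFP/DsRed ratio, decoded by Illumina sequencing, PSI is the read-weighted mean bin number.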

Sequence	protein stability index (treatment: DMSO)	protein stability index (treatment: MLN4924 1 uM, 8 h)
QLLFVIFLLLYLFTLGTNAIIIST [OR10K2]	3.18 ± 0.37	3.19 ± 0.23
ADFGSATFDHEHHTTIVATRHYRP [CLK3]	3.79 ± 0.21	3.92 ± 0.29
EISEAFTSTGFDRHTSPVFSPANP [BCL2L13]	3.9 ± 0.24	3.99 ± 0.25
YTVRAPVGVAGLISPWNLPLYLLT [ALDH8A1]	2.49 ± 0.47	2.14 ± 0.07
NLEKTIFCLQKLISLHPFNPWNWG [C8orf76]	2.53 ± 0.77	2.59 ± 0.5
CHPVERGIKSKEAEEYRLKEHYLT [PSD2]	4.21 ± 0.093	4.1 ± 0.2
TANTFRVMFKEPIEILPNVCYTAC [BTBD1]	2.46 ± 0.44	2.18 ± 0.3
PTKADTEKWAEGGGHSRERADEPQ [CHGB]	5.46 ± 0.32	5.36 ± 0.19
PADFSLGSLPGPGQTSGAREPPQA [VENTX]	5.12 ± 0.2	5.16 ± 0.24
EAITSASFLEQIMAPLQPSTSRAH [FAM189A2]	3.52 ± 0.13	3.59 ± 0.22
FYSTSSGLANGLQLLCPWAPLSGP [VENTX]	2.88 ± 0.4	2.54 ± 0.55
SAAYYLNDLDRIAQPNYIPTQQDV [GNAI1]	3.7 ± 0.28	3.73 ± 0.24
ELKRLVESRRQQILREFEELHRRL [TRIM39]	2.44 ± 0.31	2.72 ± 0.38
THMYLQSDDEMELEETEPPLEPED [P3H4]	5.4 ± 0.2	5.38 ± 0.29
DDLTSVTNHGYRVQVENPERFSSA [TRIM35]	4.44 ± 0.24	4.588 ± 0.031
LLLGLKDREGYTSFWNDCISSGLR [GOLPH3]	2.43 ± 0.5	2.11 ± 0.23
PTTGRVYESDSSNHCMLSPSSSGH [C18orf25]	4.24 ± 0.24	4.52 ± 0.052
FLIVTVAWAAHTRLFQVVGKTDDT [TMEM175]	2.86 ± 0.12	3.12 ± 0.23
NQYLYFLFAPTLIYRDSYPRNPTV [SOAT1]	3.26 ± 0.69	2.57 ± 0.62
RDRNLLQEDKALWEEEKALWVEER [CCDC70]	5.007 ± 0.024	5.04 ± 0.28
GKPLIPPMNRRNILVMKHNYSQDA [NETO1]	2.98 ± 0.4	3.31 ± 0.28
YRIRQVNIYYYLEDDSMSVIEPVV [EFHC1]	2.87 ± 0.31	2.55 ± 0.55

Sequence	protein stability index (treatment: DMSO)	protein stability index (treatment: MLN4924 1 uM, 8 h)
HLRATEKMKTRELHRESSNFDSIY [HDAC6]	3.18 ± 0.43	3.46 ± 0.2
RTAMPYGGYEKASKRMTFQMPKFD [MYOZ1]	2.76 ± 0.18	2.86 ± 0.23
VTGEKEEPSRSASEADSEAGELRK [PPEF2]	5.35 ± 0.61	5.5 ± 0.29
EMQIENLKEELAYLKKNHEEEMNA [KRT17]	4.67 ± 0.24	4.88 ± 0.33
LPKISDPNFVKDLEEDLYELFKKD [PI4K2A]	3.72 ± 0.24	3.88 ± 0.31
GGMLNFMMHDQRTGPAWNVLMWTM [SOAT2]	2.49 ± 1.2	2.07 ± 0.73
LMISENNFLFRNAASTLTERPCYN [ANKRD40]	2.16 ± 0.31	2.36 ± 0.27
PSGSSGSLSTSSSSSPPGTPSPAD [CEBPB]	5.53 ± 0.31	5.46 ± 0.069
CRLAKGENGYGFHLNAIRGLPGSF [PDZK1]	2.08 ± 0.69	2.07 ± 0.24
TKITSAFKYINTVISCTIFIVGMV [EDNRA]	2.91 ± 1.1	2.48 ± 1
LQGCSSIGLRLVLEYLYTANVTLS [KLHL14]	3.07 ± 0.45	2.93 ± 0.67
EECAKWLLLNNANPNLSNRRGSTP [RIPK4]	3.56 ± 0.17	3.71 ± 0.067
AQDSIELLTTSGIQFKKHEEEGIE [CNOT7]	5.46 ± 0.24	5.48 ± 0.34
KDLILRFCIDSENRIGNSGVEEIK [STK38L]	2.472 ± 0.02	2.85 ± 0.42
SEKRRDPPNGPNLPMATVDIKNPE [WASL]	5.35 ± 0.11	5.28 ± 0.17
IPGEHFWLLLLTRGLVGVGEASYS [SPNS1]	3.1 ± 0.47	2.37 ± 0.58
FVKILKDFPEEDDPTNWLRCYYYE [NCF4]	2.25 ± 0.28	2.55 ± 0.6
LVFEHVDQDLRTYLDKAPPPGLPA [CDK4]	2.7 ± 0.36	2.88 ± 0.34
VVKRREGPAGHSKGELAPELGEEP [POLD4]	5.46 ± 0.087	5.14 ± 0.36
EQERRLSEARLSQRDLSPTAEDAE [FCHSD1]	5.41 ± 0.23	5.6 ± 0.26
RTISCHVQNGTYLQRVLQNCPWPM [EMID1]	2.12 ± 0.22	2.02 ± 0.17
RDILVEADGAWVVKMFYSFQDKRN [STK38L]	2.07 ± 0.29	2.3 ± 0.4
